# Assay results as given in patent US20080118529.
# How the values were obtained:
# [1] = biological target: T1, human fibrin α-chain (148-160) amyloid fragment with Lys157Ala mutation (FP13)
# T1 chain: KRLEVDIDIAIRS
# [2] = biological target: human Aβ(1-40) Dutch type
protein,measurement,setting,value
"human factor XII from plasma (Calbiochem, #233490) (protein) IPPWEAPKEHKYKAEEHTVVLTVTGEPCHFPFQYHRQLYHKCTHKGRPGPQPWCATTPNFDQDQRWGYCLEPKKVKDHCSKHSPCQKGGTCVNMPSGPHCLCPQHLTGNHCQKEKCFEPQLLRFFHKNEIWYRTEQAAVARCQCKGPDAHCQRLASQACRTNPCLHGGRCLEVEGHRLCHCPVGYTGAFCDVDTKASCYDGRGLSYRGLARTTLSGAPCQPWASEATYRNVTAEQARNWGLGGHAFCRNPDNDIRPWCFVLNRDRLSWEYCDLAQCQTPTQAAPPTPVSPRLHVPLMPAQPAPPKPQPTTRTPPQSQTPGALPAKREQPPSLTRNGPLSCGQRLRKSLSSMTRVVGGLVALRGAHPYIAALYWGHSFCAGSLIAPCWVLTAAHCLQDRPAPEDLTVVLGQERRNHSCEPCQTLAVRSYRLHEAFSPVSYQHDLALLRLQEDADGSCALLSPYVQPVCLPSGAARPSETTLCQVAGWGHQFEGAEEYASFLQEAQVPFLSLERCSAPDVHGSSILPGMLCAGFLEGGTDACQGDSGGPLVCEDQAAERRLTLQGIISWGSGCGDRNKPGVYTDVAYYLAWIREHTVS","activation of factor XII, detected by the conversion of Chromozym-PK upon formation of kallikrein from prekallikrein",[1],"Like kaolin, amyloid-like peptide aggregates of FP13 and Aβ stimulate the activation of factor XII"
same,"activation of factor XII, detected by the conversion of Chromozym-PK upon formation of kallikrein from prekallikrein",[2],"Like kaolin, amyloid-like peptide aggregates of FP13 and Aβ stimulate the activation of factor XII"
same,"auto-activation of purified factor XII, substrate S-2222",[2],All three amyloid-like aggregates are able to induce factor XII auto-activation ... the potency of the Aβ(1-40) E22Q is somewhat lower
